In the test the target is endogenous FcγRI on human monocytes (human (endogenous in blood monocytes)) (UniProt P12314).
UniProt P12314, sequence (P12314 16-374): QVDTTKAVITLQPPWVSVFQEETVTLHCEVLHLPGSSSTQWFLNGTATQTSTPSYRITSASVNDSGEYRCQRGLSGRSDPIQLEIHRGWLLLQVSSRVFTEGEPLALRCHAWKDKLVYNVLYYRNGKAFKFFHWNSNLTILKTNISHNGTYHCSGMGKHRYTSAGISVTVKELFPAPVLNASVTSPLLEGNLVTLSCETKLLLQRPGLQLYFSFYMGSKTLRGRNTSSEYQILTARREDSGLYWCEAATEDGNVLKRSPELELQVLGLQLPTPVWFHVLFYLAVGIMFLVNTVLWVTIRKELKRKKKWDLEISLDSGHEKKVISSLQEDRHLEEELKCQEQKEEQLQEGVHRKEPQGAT

Take “Serum Amyloid P component (SAP), wildtype (from UniProt P02743 20-223) (natural protein)”: the IC50 of inhibition of fibrocyte differentiation of human PBMCs turned out to be 2.9 nM.
